Experimental findings from US20250320281A1 are described below.

Holding throughout (test): cell-based or functional assay
In experiment [1] the target is HIV-1 envelope glycoprotein (Env) of isolate MGRM-Chronic-B-008 (HIV-1).
Experiment [2] concerns the target HIV-1 Env of isolate 93UG077 (subtype A) (HIV-1).
Experiment [3] has as its target HIV-1 APV17 envelope glycoprotein (Env) on pseudovirus (HIV-1).
Experiment [4] addresses HIV-1 Env of isolate MGRM-AG-013 (HIV-1).
For experiment [5], the target named is HIV-1 MGRM-AG-005 envelope glycoprotein (Env) on pseudovirus (HIV-1).
The target of experiment [6] is HIV-1 APV13 envelope glycoprotein (Env) on pseudovirus (HIV-1).
Experiment [7] has as its target HIV-1 MGRM-C-026 envelope glycoprotein (Env) on pseudovirus (HIV-1).
In experiment [8] the target is HIV-1 Env of isolate JR-FL (subtype B pseudovirus) (HIV-1).
The target of experiment [9] is HIV-1 MGRM-C-028 envelope glycoprotein (Env) on pseudovirus (HIV-1).
For experiment [10], the target named is HIV-1 MGRM-C-027 envelope glycoprotein (Env) on pseudovirus (HIV-1).
The target of experiment [11] is HIV-1 MGRM-D-018 envelope glycoprotein (Env) on pseudovirus (HIV-1).
Experiment [12] has as its target HIV-1 JRFL envelope glycoprotein (Env) on pseudovirus (HIV-1).
Experiment [13] deals with HIV-1 Env of isolate MGRM-Chronic-B-010 (subtype B pseudovirus) (HIV-1).
The target in experiment [14] is HIV-1 MGRM-D-001 envelope glycoprotein (Env) on pseudovirus (HIV-1).
The target of experiment [15] is HIV-1 APV6 envelope glycoprotein (Env) on pseudovirus (HIV-1).

Bounds are passed on as bounds.

Chain of 4970_K22 (PGT-144) (antibody) (VH): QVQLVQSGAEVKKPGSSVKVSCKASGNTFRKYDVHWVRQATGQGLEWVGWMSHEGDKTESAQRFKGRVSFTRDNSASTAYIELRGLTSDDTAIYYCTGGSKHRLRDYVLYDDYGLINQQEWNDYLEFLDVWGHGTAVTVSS
Chain of 4970_K22 (PGT-144) (antibody) (VL): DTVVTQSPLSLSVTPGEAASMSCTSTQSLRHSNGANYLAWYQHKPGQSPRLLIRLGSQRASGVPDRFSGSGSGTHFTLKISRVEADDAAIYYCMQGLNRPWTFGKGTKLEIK
Chain of 4993_K13 (PGT-141) (antibody) (VH): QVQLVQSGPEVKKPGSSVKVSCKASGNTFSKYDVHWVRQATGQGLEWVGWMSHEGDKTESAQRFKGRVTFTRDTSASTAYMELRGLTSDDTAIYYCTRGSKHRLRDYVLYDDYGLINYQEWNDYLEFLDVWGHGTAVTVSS
Chain of 4993_K13 (PGT-141) (antibody) (VL): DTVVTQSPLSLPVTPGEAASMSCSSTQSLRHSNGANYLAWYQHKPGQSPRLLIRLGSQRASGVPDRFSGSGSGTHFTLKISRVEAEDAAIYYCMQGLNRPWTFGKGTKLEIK
Chain of 4980_N08 (PGT-143) (antibody) (VH): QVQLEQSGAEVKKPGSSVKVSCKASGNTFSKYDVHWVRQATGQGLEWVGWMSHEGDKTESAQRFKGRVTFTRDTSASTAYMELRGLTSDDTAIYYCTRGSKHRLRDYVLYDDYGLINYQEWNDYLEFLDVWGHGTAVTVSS
Chain of 4980_N08 (PGT-143) (antibody) (VL): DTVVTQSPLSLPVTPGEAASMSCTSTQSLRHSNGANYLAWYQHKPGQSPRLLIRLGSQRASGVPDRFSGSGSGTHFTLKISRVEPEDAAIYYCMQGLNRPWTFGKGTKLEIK
Chain of 4995_E20 (PGT-142) (antibody) (VH): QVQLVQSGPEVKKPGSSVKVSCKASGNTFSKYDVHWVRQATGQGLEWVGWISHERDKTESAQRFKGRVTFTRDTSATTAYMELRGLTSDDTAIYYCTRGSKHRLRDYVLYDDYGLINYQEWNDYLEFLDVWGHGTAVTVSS

In the case of 4970_K22 (PGT-144) (antibody), the IC50 (µg/mL), pseudovirus neutralization in experiment [1] and in experiment [2] was greater than 50 µg/mL throughout.
Turning to 4858_P08 (PGT-123) (antibody), the neutralization IC50 in [3] was 0.18 µg/mL; in experiment [5] it was 0.104 µg/mL; in experiment [6], 0.222 µg/mL; in [7] it was 0.0031 µg/mL; in experiment [9], 0.443 µg/mL; in [10], 0.0169 µg/mL. Moreover, the neutralization IC50 in [11] was 0.0047 µg/mL; in [12], 0.0283 µg/mL; in [14] it was 0.215 µg/mL; in experiment [15], 0.0328 µg/mL. The neutralization IC80 in experiment [3] came out at 0.539 µg/mL; in [5], 1.28 µg/mL; in experiment [6] it was 0.879 µg/mL; in experiment [7], 0.0094 µg/mL; in experiment [9], 2.8 µg/mL; in [10], 0.149 µg/mL. Further, the neutralization IC80 stood at 0.0175 µg/mL in [11], 0.0904 µg/mL in experiment [12], 0.678 µg/mL in experiment [14] and 0.145 µg/mL in experiment [15]. The neutralization IC90 in experiment [3] is 1.01 µg/mL; in [5], 6.38 µg/mL; in experiment [6], 1.87 µg/mL; in experiment [7] it was 0.0183 µg/mL; in experiment [9] it was 7.11 µg/mL; in experiment [10], greater than 10 µg/mL. Further, the neutralization IC90 in experiment [11] came out at 0.0381 µg/mL; in [12], 0.178 µg/mL; in experiment [14], 1.31 µg/mL; in experiment [15], 0.339 µg/mL. Further, the neutralization IC95 was 1.75 µg/mL in experiment [3]; greater than 10 µg/mL in [5]; 3.5 µg/mL in [6]; 0.0338 µg/mL in [7]; greater than 10 µg/mL in experiment [9]; greater than 10 µg/mL in experiment [10]. Further, the neutralization IC95 in experiment [11] worked out at 0.0791 µg/mL; in [12], 0.332 µg/mL; in [14], 2.33 µg/mL; in experiment [15], 0.726 µg/mL. Besides, in experiment [4], the IC50 worked out at 3.37 µg/mL. For the same substance, the figures for the IC50 (µg/mL), pseudovirus neutralization in [8] and in experiment [13] were 0.014 µg/mL and 0.009 µg/mL, respectively.
As for 4980_N08 (PGT-143) (antibody), the IC50 (µg/mL), pseudovirus neutralization in experiment [1] and in experiment [2] was greater than 50 µg/mL each time.
In experiment [4], 5145_B14 (PGT-127) (antibody) registered an IC50 of 0.018 µg/mL. Besides, the IC50 (µg/mL), pseudovirus neutralization in experiment [8] was 0.029 µg/mL; in experiment [13] it was 0.019 µg/mL.
With 4995_E20 (PGT-142) (antibody), the IC50 (µg/mL), pseudovirus neutralization in experiment [1] and in experiment [2] was greater than 50 µg/mL throughout.
In [4], 5123_A06 (PGT-125) (antibody) yielded an IC50 of 0.004 µg/mL. Also, the figures for the IC50 (µg/mL), pseudovirus neutralization in experiment [8] and in [13] were 0.009 µg/mL and 0.006 µg/mL, respectively.
Regarding VRC01 (antibody), the IC50 (µg/mL), pseudovirus neutralization in [1] was 0.155 µg/mL; in experiment [2], 0.097 µg/mL.
Consider 4993_K13 (PGT-141) (antibody), for which the IC50 (µg/mL), pseudovirus neutralization in experiment [1] and in experiment [2] was greater than 50 µg/mL throughout.
On to 4877_D15 (PGT-122) (antibody), for which the IC50 in experiment [4] worked out at 0.521 µg/mL. Also, the IC50 (µg/mL), pseudovirus neutralization in [8] is 0.026 µg/mL; in experiment [13], 0.018 µg/mL.

In general, IC50 refers to the concentration that inhibits the measured activity by half. Read a low IC50 as inhibition by little substance.
